B1: Pistol ribozyme (parent)
chain: GGGUCGUUGUUCCAUAAUCGCGUGGAUAUGGCACGCAAGUUUCUACCGGGCACCGUAAAUGUCCGACUGGAGCCGUUCGGGCGGCUAUAAACAGACCUCAGGCCCGAAGCGUGGCGGCACCUGCCGCCGGUGGUAAAAAAGAUCGGAAGAGCACACGUCU

In this series the parent is B1. Kind of series: aptazyme ON/OFF ratio, guanine; higher = stronger switching; co-transcriptional cleavage with and without guanine.
Turning to U7A G9U U10G U11G C13A, the “aptazyme ON/OFF ratio” value was 1.22.

Turning to U7A U8A G9A U10G U11C C12U, the “aptazyme ON/OFF ratio” value was found to be 1.05.

Regarding U7A U8A G9A U10G U11C C12A, the “aptazyme ON/OFF ratio” value is 1.26.

For U7A U8A G9A U10G U11C C12G, the “aptazyme ON/OFF ratio” value was 1.13.

Regarding U7A U8A G9A U10A U11C, the “aptazyme ON/OFF ratio” value was 1.04.

With U7A U8A G9A U10A U11G, the “aptazyme ON/OFF ratio” value came to 1.29.

In the case of U7A U8A G9A U10A U11A, the “aptazyme ON/OFF ratio” value was found to be 1.15.

Turning to U7A U8A G9A U10G U11G C13A, the “aptazyme ON/OFF ratio” value was found to be 1.19.

In the case of U7A U8A G9A U10G U11G C13G, the “aptazyme ON/OFF ratio” value worked out at 1.21.

U7A U8A G9A U10G U11G C13U: the “aptazyme ON/OFF ratio” value stood at 1.07.

As to U7A U8A C12A, the “aptazyme ON/OFF ratio” value was 1.76.

Regarding U7A U8A C12G, the “aptazyme ON/OFF ratio” value was 1.41.

In the case of U7A U8A C12U, the “aptazyme ON/OFF ratio” value is 1.59.

Regarding U7A U8A G9A U10C C12U C13U, the “aptazyme ON/OFF ratio” value was 1.19.

In the case of U7A U8A G9A U10C C12U C13A, the “aptazyme ON/OFF ratio” value was 1.01.

For the variant U7A U8A G9A U10C C12U C13G, the “aptazyme ON/OFF ratio” value came out at 1.15.

With U7A U8A G9A U10A C13U, the “aptazyme ON/OFF ratio” value was found to be 1.17.

In the case of U7A U8A G9A U10A C13A, the “aptazyme ON/OFF ratio” value amounted to 1.12.

With U7A U8A G9A U10A C13G, the “aptazyme ON/OFF ratio” value was 1.05.

As for U7A G9U U11A C13A, the “aptazyme ON/OFF ratio” value is 1.12.

For the variant U7A G9U U11A C13G, the “aptazyme ON/OFF ratio” value is 1.08.

As for U7A G9U U11A C13U, the “aptazyme ON/OFF ratio” value is 1.1.

Take U7A U8A G9A U10A U11C C12A: the “aptazyme ON/OFF ratio” value was 1.24.

Turning to U7A U8A G9A U10A U11C C12G, the “aptazyme ON/OFF ratio” value worked out at 1.17.

Regarding U7A U8A G9A U10A U11C C12U, the “aptazyme ON/OFF ratio” value came to 1.02.

As to U7A G9U U10G U11G C12G C13G, the “aptazyme ON/OFF ratio” value came to 1.4.

Consider U7A G9U U10G U11G C12G C13U, for which the “aptazyme ON/OFF ratio” value is 1.45.

For the variant U7A G9U U10G U11G C12G C13A, the “aptazyme ON/OFF ratio” value turned out to be 1.23.

For U7A U8A C12U C13G, the “aptazyme ON/OFF ratio” value turned out to be 1.24.

Take U7A U8A C12U C13A: the “aptazyme ON/OFF ratio” value was found to be 1.29.

Turning to U7A U8A C12U C13U, the “aptazyme ON/OFF ratio” value came out at 1.38.

Turning to U7A U8A G9A U10C U11G C12U C13U, the “aptazyme ON/OFF ratio” value was 1.13.

For U7A U8A G9A U10C U11G C12U C13A, the “aptazyme ON/OFF ratio” value was determined as 1.14.

For U7A U8A G9A U10C U11G C12U C13G, the “aptazyme ON/OFF ratio” value came out at 1.05.

As to U7A G9U U10G U11G C12U, the “aptazyme ON/OFF ratio” value is 1.16.

U7A G9U U10G U11G C12G: the “aptazyme ON/OFF ratio” value was found to be 1.43.

For the variant U7A G9U U10G U11G C12A, the “aptazyme ON/OFF ratio” value was determined as 1.13.

Consider U7A U8A G9A U10C U11G C13U, for which the “aptazyme ON/OFF ratio” value was determined as 1.09.

As for U7A U8A G9A U10C U11G C13A, the “aptazyme ON/OFF ratio” value came out at 1.08.

U7A U8A G9A U10C U11G C13G: the “aptazyme ON/OFF ratio” value came out at 1.24.

In the case of U7A U8A G9A U10C U11A C12A C13U, the “aptazyme ON/OFF ratio” value turned out to be 1.13.

Turning to U7A U8A G9A U10C U11A C12A C13G, the “aptazyme ON/OFF ratio” value is 1.06.

U7A U8A G9A U10C U11A C12A C13A: the “aptazyme ON/OFF ratio” value was 1.11.

With U7A U8A G9A U10G U11G C12G C13U, the “aptazyme ON/OFF ratio” value was 1.44.

Take U7A U8A G9A U10G U11G C12G C13A: the “aptazyme ON/OFF ratio” value was found to be 1.5.

Turning to U7A U8A G9A U10G U11G C12G C13G, the “aptazyme ON/OFF ratio” value is 1.55.

Consider U7A U8A G9A C12G, for which the “aptazyme ON/OFF ratio” value was 1.4.

Consider U7A U8A G9A C12A, for which the “aptazyme ON/OFF ratio” value came out at 1.46.

In the case of U7A U8A G9A C12U, the “aptazyme ON/OFF ratio” value is 1.32.

Consider U7A U8A G9A U10A C12G C13U, for which the “aptazyme ON/OFF ratio” value came to 1.28.

Take U7A U8A G9A U10A C12G C13A: the “aptazyme ON/OFF ratio” value came out at 1.24.

Take U7A U8A G9A U10A C12G C13G: the “aptazyme ON/OFF ratio” value was found to be 1.15.

Turning to U7A U8A G9A C13U, the “aptazyme ON/OFF ratio” value was 1.22.

On to U7A U8A G9A C13G, for which the “aptazyme ON/OFF ratio” value is 1.11.

Consider U7A U8A G9A C13A, for which the “aptazyme ON/OFF ratio” value stood at 1.11.

On to U7A U8A G9A U10C U11C C12G C13A, for which the “aptazyme ON/OFF ratio” value stood at 1.08.

As for U7A U8A G9A U10C U11C C12G C13G, the “aptazyme ON/OFF ratio” value worked out at 1.07.

Consider U7A U8A G9A U10C U11C C12G C13U, for which the “aptazyme ON/OFF ratio” value came to 1.

With U7A G9U U11C C12G C13A, the “aptazyme ON/OFF ratio” value came out at 1.11.

Consider U7A G9U U11C C12G C13U, for which the “aptazyme ON/OFF ratio” value came out at 1.12.

With U7A G9U U11C C12G C13G, the “aptazyme ON/OFF ratio” value was 1.12.

In the case of U7A U8A G9A U10C U11C C12U C13U, the “aptazyme ON/OFF ratio” value is 1.05.

As for U7A U8A G9A U10C U11C C12U C13A, the “aptazyme ON/OFF ratio” value turned out to be 1.06.

For the variant U7A U8A G9A U10C U11C C12U C13G, the “aptazyme ON/OFF ratio” value amounted to 1.03.

With U7A G9U U11C C12U C13A, the “aptazyme ON/OFF ratio” value was 1.2.

As for U7A G9U U11C C12U C13G, the “aptazyme ON/OFF ratio” value was determined as 1.1.

With U7A G9U U11C C12U C13U, the “aptazyme ON/OFF ratio” value came to 1.26.

Regarding U7A U8A G9A U10G U11C C13A, the “aptazyme ON/OFF ratio” value came out at 1.08.

On to U7A U8A G9A U10G U11C C13G, for which the “aptazyme ON/OFF ratio” value amounted to 1.08.

For the variant U7A U8A G9A U10G U11C C13U, the “aptazyme ON/OFF ratio” value is 1.03.

Consider U7A U8A G9A U10A U11G C12U C13G, for which the “aptazyme ON/OFF ratio” value amounted to 1.24.

As to U7A U8A G9A U10A U11G C12U C13A, the “aptazyme ON/OFF ratio” value is 1.3.

U7A U8A G9A U10A U11G C12U C13U: the “aptazyme ON/OFF ratio” value turned out to be 1.3.

For U7A G9U U11G C12U, the “aptazyme ON/OFF ratio” value turned out to be 1.52.

With U7A G9U U11G C12A, the “aptazyme ON/OFF ratio” value turned out to be 1.11.

Consider U7A G9U U11G C12G, for which the “aptazyme ON/OFF ratio” value came to 1.15.

For the variant U7A U8A G9A U10A U11G C12U, the “aptazyme ON/OFF ratio” value was 1.19.

Regarding U7A U8A G9A U10A U11G C12G, the “aptazyme ON/OFF ratio” value was found to be 1.16.

In the case of U7A U8A G9A U10A U11G C12A, the “aptazyme ON/OFF ratio” value was found to be 1.04.

In the case of U7A U8A G9A U10C C12A C13U, the “aptazyme ON/OFF ratio” value amounted to 1.

In the case of U7A U8A G9A U10C C12A C13A, the “aptazyme ON/OFF ratio” value was 1.13.

As for U7A U8A G9A U10C C12A C13G, the “aptazyme ON/OFF ratio” value was found to be 1.03.

As to U7A U8A G9A U10C U11A C12U, the “aptazyme ON/OFF ratio” value is 1.17.

On to U7A U8A G9A U10C U11A C12G, for which the “aptazyme ON/OFF ratio” value came to 1.1.

The values above are taken from the RNAGym collection of RNA variant scans (doi:10.1021/acssynbio.7b00057).
